From patent US8158577B2, “Modulation of cartilage homeostasis by active domains of cell binding extracellular matrix molecules” (priority 2004, dated 2012)

Experiments:
[1] = target: T1, Syndecan 3 (Homo sapiens, UniProt O75056); assay: Affinity purification of K105 membrane proteoglycans on chondroadherin-agarose and immunoprecipitation with pan-syndecan antibody; format: binding; settings: eluted with 0.5 M NaCl, after heparitinase
T1 construct: endogenous in cells; host or cells: human chondrosarcoma cells K105 (membrane fraction, surface-biotinylated)
Protocol: Recombinant chondroadherin (2.5 mg expressed in EBNA-cells per ml agarose) was coupled to Mini-Leak agarose (Kem En Tec, A/S, Denmark) according to the manufacturer's instructions. The control agarose was treated in the same manner but with no protein added.
Human chondrosarcoma cells (k105) suspended in PBS were incubated with EZ-link sulfo NHS-LC biotin (Pierce Chemical Co) at a final concentration of 1 mg/ml for 1 hour at room temperature. The cells were incubated for 10 minutes in 0.1 M glycine in PBS to block free biotin, washed three times in PBS and then resuspended and homogenized in 10 mM KCl, 20 mM Tris/HCl, pH 7.4, 1 mM EDTA (1 ml/10^6 cells). Nuclei were removed by centrifugation at 1,500 g for 5 minutes, 0.15 M NaCl was added to the supernatant and the membrane fraction was collected by centrifugation at 50,000 g for 30 minutes. The pellet was suspended in 2 ml 8 M UREA, 2% […] in TBS pH 7.4 supplemented with COMPLET® protease inhibitor (Roche). The lysate was cleared by centrifugation at 14,000 g for 20 min. […]
Cell surface proteins on human chondrosarcoma cells (K105) were biotin labeled and affinity purified on chondroadherin-agarose in urea. Bound material was eluted with 0.5 M NaCl, separated on SDS-PAGE (4-12%) and detected by Western blot before or after heparitinase and chondroitinase ABC treatment. […]

[2] = Heparin binding on Heparin-Sepharose; settings: eluted with NaCl (0.5, 1, 2M), Western blot or MALDI-TOF MS
Protocol: Intact recombinant protein (10 μg, EBNA-cell expressed) diluted in PBS was passed over Heparin-Sepharose (Amersham Pharmacia) (1 ml), washed with 20 volumes of PBS and eluted with 2 M NaCl (6×1 ml). Eluted material was precipitated with ethanol, separated by SDS-PAGE (10%) and visualized by western blot (CHAD ab α-80, Larsson et al). The peptide CKFPTKRSKKAGRH (SEQ ID No:7) was diluted in PBS and passed over heparin-sepharose (100 μl), the column was washed with 20 volumes PBS and bound material eluted with 0.5, 1, and 2M NaCl (3 column volumes of each).
Recombinant chondroadherin (10 or 100 μg) expressed in EBNA-cells was passed over Heparin-Sepharose-column (Pharmacia). The column was washed and eluted with 2M NaCl in PBS. Eluted material was separated on SDS-PAGE (10%) and detected by western blot using a chondroadherin antibody (see FIG. 4). The band at 36 kDa represents chondroadherin ant the band at 72 kDa represents a dimer of chondroadherin.
The candidate peptide CKFPTKRSKKAGRH (SEQ ID No: 7) was synthesized. The ability of the peptide to bind heparin was confirmed on heparin-sepharose, where material eluted with 0.5, 1 and 2M NaCl was identified by MALDI-TOF MS (data not shown).

[3] = system: K9 cells; assay: Adhesion of K9 cells to selected matrix constituents (FIG. 1); format: cell-based, human; settings: 5 μg/ml coating, 1 hour at 37° C., 50,000 cells/well seeded
Protocol: Human cells (K9) originating from a human chondrosarcoma were a kind gift from Drs. Sven Inerot and Anders Lindahl, The Salgrenska University Hospital Gothenburg, Sweden. The K9 cells were cultured in Dulbeccos Modified Eagle Medium: Nutrient Mixture F12 (DMEM/F12 1:1) with GLUTAMAX I, supplemented with 10% fetal calf serum, 25 μg/ml ascorbic acid, 50 IU of penicillin and 50 μg/ml streptomycin (Life Technologies, Inc.). A different human cells line (K105) originating from a human chondrosarcoma was a kind gift from Dr. Sven Inerot, The Salgrenska University Hospital, Gothenburg, Sweden. […]
To test cell binding, the chondrosarcoma cells or bovine chondrocytes were suspended in PBS containing 0.1% BSA, 25 U/ml collagenase and added to the wells (50,000/well), in the absence or presence of various peptide pools or the synthetic peptides (200, 100, 50, 25, 12.5 μg/ml). Non-adherent cells were removed after 1 hour and adhesion was determined by measuring lysosomal N-acetylglucosaminidase (12). […]
48-well tissue culture dishes were coated with 5 μg/ml collagen type II, tissue extracted bovine chondroadherin, human chondroadherin expressed in EBNA cells and human chondroadherin expressed in E. coli and blocked for non-specific binding with BSA. […] Nonadherent cells were removed by washing and adhesion was determined by analyzing lysosomal N-acetylglucosaminidase. […]

T1 sequence (O75056 whole entry): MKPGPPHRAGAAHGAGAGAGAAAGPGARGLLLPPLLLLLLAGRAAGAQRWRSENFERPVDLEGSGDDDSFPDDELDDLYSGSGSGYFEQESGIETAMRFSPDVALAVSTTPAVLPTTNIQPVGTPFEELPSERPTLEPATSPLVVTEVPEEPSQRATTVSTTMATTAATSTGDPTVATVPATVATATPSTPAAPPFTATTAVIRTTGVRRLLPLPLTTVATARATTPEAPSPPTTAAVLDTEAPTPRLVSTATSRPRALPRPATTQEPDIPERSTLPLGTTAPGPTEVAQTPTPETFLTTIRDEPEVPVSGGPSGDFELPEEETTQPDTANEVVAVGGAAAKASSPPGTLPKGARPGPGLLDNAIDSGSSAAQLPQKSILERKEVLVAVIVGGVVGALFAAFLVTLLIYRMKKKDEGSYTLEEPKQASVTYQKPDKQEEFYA

- K105 membrane component bound to chondroadherin [1]: Syndecan 3
- binding to heparin-sepharose [2]: bind to the heparin-sepharose
- binding to heparin-sepharose ([2]; listed as Recombinant chondroadherin): bind heparin
B1: Chondroadherin (protein)
chain: ACPQNCHCHSDLQHVICDKVGLQKIPKVSEKTKLLNLQRNNFPVLAANSFRAMPNLVSLHLQHCQIREVAAGAFRGLKQLIYLYLSHNDIRVLRAGAFDDLTELTYLYLDHNKVTELPRGLLSPLVNLFILQLNNNKIRELRAGRFQGAKDLRWLYLSENALSSLQPGALDDVENLAKFHVDRNQLSSYPSAALSKLRVVEELKLSHNPLKSIPDNAFQSFGRYLETLWLDNTNLEKFSDGAFLGVTTLKHVHLENNRLNQLPSNFPFDSLETLALTNNPWKCTCQLRGLRRWLEAKASRPDATCASPAKFKGQHIRDTDAFRSCKFPTKRSKKAGRH
modifications: homo sapiens
notes: leucine-rich cartilage matrix protein, 338 amino acids; human recombinant, expressed in EBNA cells or E. coli
- adhesion of K9 cells to coated substrate (number of cells) [3]: virtually identical to that of the bacterially expressed
